Experimental findings from patent US20240317859A1 (FOUNDATION FOR BIOMEDICAL RESEARCH AND INNOVATION AT KOBE, published 2024) are described below.

For assay [1], the target named is T1, substituted human PD-1, domain #7 replaced with the corresponding amino acid sequence of mouse PD-1 (human; mouse, UniProt Q15116 25-288).
T1 construct: Human limits of domain #7 (38-48) are printed; also called PD-1 if domain #7 is replaced
T1 chain: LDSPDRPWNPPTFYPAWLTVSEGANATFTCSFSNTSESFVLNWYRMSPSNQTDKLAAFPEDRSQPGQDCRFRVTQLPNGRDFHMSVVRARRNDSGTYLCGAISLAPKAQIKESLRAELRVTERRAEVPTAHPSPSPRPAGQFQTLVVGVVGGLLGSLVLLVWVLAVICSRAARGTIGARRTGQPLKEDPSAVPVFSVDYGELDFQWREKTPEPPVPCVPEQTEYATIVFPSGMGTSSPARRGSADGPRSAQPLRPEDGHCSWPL
The assay can be described thus: flow cytometry on cells expressing substituted human PD-1. The source says:
(§1) These sub-groups of antibodies are characterized by a common nature that they bind to domain #6 and domain #7, and are distinguished from known antibodies.
(§2) The gene of human PD-1 (wild-type) or substituted human PD-1 in which regions 1 to 8 as shown in FIG. 2A were replaced with mouse sequences and a gene of fluorescent protein such as GFP were co-expressed in a cell line (such as DO11.10 T cell hybridoma or HEK293T) by means of a vector ligating the genes with IRES sequences. The expression level of PD-1 on this cell line is correlated with the expression level of fluorescent protein such as GFP. Anti-PD-1 antibody was bound to the PD-1/GFP expressing cells, and the bound antibody was detected with a secondary antibody labeled with a different fluorescent dye. Briefly, PD-1-expressing cells were seeded in V-shaped bottom 96-well plates at 1×10⁵ cells/well. To each cell pellet, 50 μl of anti-human PD-1 antibody adjusted to 5 μg/ml was added and mixed. The mixture was incubated at 4° C. for 15 minutes. After washing, BV421-labeled anti-mouse IgG antibody or BV421-labeled anti-human IgG antibody, each adjusted to 5 μg/ml, was added in 50 μl. The mixture was incubated at 4° C. for 15 minutes. After washing, cells were suspended in 200 μl of buffer, and passed through a 70 μm filter. The fluorescence intensity of the filtrate was measured with a flow cytometer. The thus obtained fluorescence intensity can be rephrased as the binding capacity of anti-human PD-1 antibody to human PD-1 (wild-type or substituted). […] Binding characteristics to R143A point mutant or substituted Mouse PD-1 (hu38-48) were also analyzed in the same manner.

Assay [2] concerns the target T2, substituted human PD-1, domain #1 replaced with the corresponding amino acid sequence of mouse PD-1 (human; mouse, UniProt Q15116 25-288).
T2 construct: also called PD-1 when domain #1 is replaced
T2 chain: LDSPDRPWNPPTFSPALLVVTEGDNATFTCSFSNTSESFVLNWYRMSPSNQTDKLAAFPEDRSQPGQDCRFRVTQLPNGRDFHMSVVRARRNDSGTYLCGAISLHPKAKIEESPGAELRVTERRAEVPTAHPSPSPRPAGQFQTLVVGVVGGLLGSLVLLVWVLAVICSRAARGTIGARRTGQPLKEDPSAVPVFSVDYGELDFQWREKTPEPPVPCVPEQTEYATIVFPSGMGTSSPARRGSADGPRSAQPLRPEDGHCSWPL
The description is as above.
From the text: as §1, §2

The target in assay [3] is T3, substituted human PD-1, domain #6 replaced with the corresponding amino acid sequence of mouse PD-1 (human; mouse, UniProt Q15116 25-288).
T3 construct: Human limits of domain #6 (109-120) are printed; also called PD-1 if domain #6 is replaced
T3 chain: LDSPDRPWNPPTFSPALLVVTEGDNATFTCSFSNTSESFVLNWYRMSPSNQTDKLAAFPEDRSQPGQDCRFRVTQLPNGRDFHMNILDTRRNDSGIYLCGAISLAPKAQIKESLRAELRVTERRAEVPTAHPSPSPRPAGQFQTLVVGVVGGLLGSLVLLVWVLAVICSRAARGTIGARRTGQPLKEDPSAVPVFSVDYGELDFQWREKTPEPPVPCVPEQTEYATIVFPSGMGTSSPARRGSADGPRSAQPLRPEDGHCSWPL
The assay is described as above.
From the text: as §1, §2

Assay [4] concerns the target T4, human PD-1 (wild-type), expressed on cells (human, UniProt Q15116 25-288).
T4 construct: also called hPD-1; wild-type human PD-1
The assay is described as follows: flow cytometry on PD-1-expressing cells.
From the text: as §2, with “After washing, cells were suspended in 200 μl of buffer, and passed through a 70 μm filter.” left out

B1: mouse HM297 (antibody, mouse IgG2a, kappa)
heavy: EVLLQQSGPELVKPGASVKIPCKASGYTFTDYNVDWVRQSHGKSLEWIGDIDPNNGGTIYNQKFKDKATLTVDKSSRTAYMELRSLTSEDTAVYYCARWRGAMDYWGQGTSVTVSSAKTTAPSVYPLAPVCGDTTGSSVTLGCLVKGYFPEPVTLTWNSGSLSSGVHTFPAVLQSDLYTLSSSVTVTSSTWPSQSITCNVAHPASSTKVDKKIEPRGPTIKPCPPCKCPAPNLLGGPSVFIFPPKIKDVLMISLSPIVTCVVVDVSEDDPDVQISWFVNNVEVHTAQTQTHREDYNSTLRVVSALPIQHQDWMSGKEFKCKVNNKDLPAPIERTISKPKGSVRAPQVYVLPPPEEEMTKKQVTLTCMVTDFMPEDIYVEWTNNGKTELNYKNTEPVLDSDGSYFMYSKLRVEKKNWVERNSYSCSVVHEGLHNHHTTKSFSRTPGK
light: DVQMTQTTSSLSASLGDRVTISCRASQDIDNYLKWYQQKPDGTVKLLIYDTSRLHSGVPSRFSGSGSGTDYSLTISNLKQEDIATYFCQQGYTLPWTFGGGTRLEIKRADAAPTVSIFPPSSEQLTSGGASVVCFLNNFYPKDINVKWKIDGSERQNGVLNSWTDQDSKDSTYSMSSTLTLTKDEYERHNSYTCEATHKTSTSPIVKSFNRNEC
notes: Mouse anti-human PD-1 monoclonal antibody (mouse IgG)
Turning to B1, the binding result in assay [1], in assay [2] and in assay [3] was “no binding (tested: 5 µg/ml)” each time.

B2: HM624 (antibody, V domains shown)
VH: EVLLQQSGPELVQPGTSVKIFCKASGYTFTDYNIDWVKQSHGKSHEWIGDIDPNNGGTVYNQKFKGKATLTVDKSSTTAYMELRSLTSEDTAVYYCTRWRGAMDYWGRGTSVTVSS
VL: DIQMTQTTSSLSASLGDRVTISCRASQDVSNYLNWYQQKPDGTVKLLIYDTSKLHSGVPSRFSGSGSGTDYSLTIRDPDQEDIATYFCQQGHTLPWTFGGGTKLEIRR
For B2, the binding result in assay [1], in assay [2] and in assay [3] was “no binding (tested: 5 µg/ml)” in each case.

B3: mouse HM266 (antibody, mouse IgG2a, kappa, V domains shown)
VH: QVQLQQSGPELVKPGASVKMSCKASGYTFTSYYIQWVKQRPGQGLEWIGWIYPGDGSSKYNEKFKGKTTLTADKSSSTAYMLLSSLTSEDSGIYFCASYYGSSFDYWGQGTTLTVSS
VL: DIQMTQTTSSLSASLGDRVTISCRASQDISNYLNWYQQKPDGTVKFLIYYSSRLHSGVPSRFSGSGSGTDYSLTISNLEQEDIATYFCQQGSTLPFTFGGGTKLEIKR
notes: as for B1
Turning to B3, the binding result in assay [4] was “binds”.

B4: HM698 (antibody, V domains shown)
VH: EVLLQQSGPELVKPGASVKIPCKASGYTFTDYNMDWVKQSHGKSLEWIGDIDPNNGGTVYNQKFKGKASLTVDKSSSTAYMELRSLTSEDTAVYYCARWRSAMDYWGQGTSVTVSS
VL: DIQMTQTTSSLSASLGDRVTISCRASQDISNYLNWYQQKPDGTVKLLIYYTSRLHSGVPSRFSGSGSGTDYSLTISNLEQEDIATYFCQQYNTLPWTFGGGTKLEIKR
As to B4, the binding result in assay [1] and in assay [3] was “no binding (tested: 5 µg/ml)” in each case.

B5: HM647 (antibody, V domains shown)
VH: EVLLQQSGPELVKPGASVKITCKASGYTFTDYNMDWVKQSHGKSLEWIGDIDPNNGGTVYNQKFKDKASLTVDKSSSTGYMELRSLTSEDTAVYYCARWRSAMDYWGQGTSVTVSS
VL: DIQMTQPTSSLSASLGDRVTISCRASQDISNYLNWYQQKPDGTVKLLISYTSRLHSGVPSRFSGSGSGTDYSLTISNLEQVDIATYFCQQYSTLPWTFGGGSKLEIKR
In the case of B5, the binding result in assay [1] and in assay [3] was “no binding (tested: 5 µg/ml)” in each case.
